From patent US20220185874A1 (ROCHE DIAGNOSTICS OPERATIONS, published 2022)
Substitutions are numbered along the chain they refer to. Names and notes keep the numbering of the source.

B1: mAb<TnT>rM-11-7(A102W)-Fab(IgG1)-Qtag-Bi (Fab, V domains shown)
VH: QIQLVQSGPELKKPGETVKISCKASGYTFTDFSMHWVKQAPGKGLKWMGWINTETGEPTYADDFKGRFAFSLETSATTAYLQINNLKNEDTATYFCVRSHWMDYWGQGTSVTVSS
VL: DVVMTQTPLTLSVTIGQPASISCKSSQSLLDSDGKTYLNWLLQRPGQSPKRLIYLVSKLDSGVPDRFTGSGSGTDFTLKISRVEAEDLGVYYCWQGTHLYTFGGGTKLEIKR
notes: Murine Fab (IgG1) with a Qtag, produced in HEK FreeStyle 293-F cells, site-directed conjugated to biotin with Kutzneria albida transglutaminase; also called maturated biotinylated mAb<TnT>rM-11-7(A102W)-Fab
B2: mAb<TnT>rM-11-7 Fab A102D (Fab, V domains shown)
VH: B1 VH with W101D
VL: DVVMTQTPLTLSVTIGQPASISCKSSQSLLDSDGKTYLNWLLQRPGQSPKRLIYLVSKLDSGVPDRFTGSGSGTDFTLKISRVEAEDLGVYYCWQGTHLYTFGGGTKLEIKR
notes: Murine CH1 and CL, E. coli periplasmic lysate
B3: mAb<TnT>rM-11-7 Fab A102L (Fab, V domains shown)
VH: B1 VH with W101L
VL: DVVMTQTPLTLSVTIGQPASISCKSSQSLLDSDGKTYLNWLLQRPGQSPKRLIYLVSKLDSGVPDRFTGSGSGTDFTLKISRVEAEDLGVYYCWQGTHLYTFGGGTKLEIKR
notes: as for B2
B4: mAb<TnT>rM-11-7 Fab A102Y (Fab, V domains shown)
VH: B1 VH with W101Y
VL: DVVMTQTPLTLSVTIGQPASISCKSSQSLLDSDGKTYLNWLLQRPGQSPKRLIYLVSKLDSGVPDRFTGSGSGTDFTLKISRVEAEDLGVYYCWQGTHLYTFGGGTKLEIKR
notes: as for B2
B5: mAb<TnT>rM-11-7 Fab A102F (Fab, V domains shown)
VH: B1 VH with W101F
VL: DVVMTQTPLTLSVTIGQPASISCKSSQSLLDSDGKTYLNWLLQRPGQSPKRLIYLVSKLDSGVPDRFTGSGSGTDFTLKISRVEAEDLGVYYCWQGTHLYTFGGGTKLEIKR
notes: as for B2
B6: mAb<TnT>rM-11-7 Fab A102E (Fab, V domains shown)
VH: B1 VH with W101E
VL: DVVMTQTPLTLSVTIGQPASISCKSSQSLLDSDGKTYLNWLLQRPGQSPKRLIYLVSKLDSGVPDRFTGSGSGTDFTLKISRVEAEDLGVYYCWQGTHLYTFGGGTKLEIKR
notes: as for B2
B7: mAb<TnT>rM-11-7 Fab A102R (Fab, V domains shown)
VH: B1 VH with W101R
VL: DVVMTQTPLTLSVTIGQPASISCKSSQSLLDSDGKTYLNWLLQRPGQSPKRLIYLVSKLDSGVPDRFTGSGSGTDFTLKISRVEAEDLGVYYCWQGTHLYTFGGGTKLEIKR
notes: as for B2
B8: mAb<TnT>rM-11-7 Fab A102H (Fab, V domains shown)
VH: B1 VH with W101H
VL: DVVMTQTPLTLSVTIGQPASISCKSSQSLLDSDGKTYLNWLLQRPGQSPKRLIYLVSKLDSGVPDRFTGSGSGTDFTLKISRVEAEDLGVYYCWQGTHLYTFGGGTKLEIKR
notes: as for B2
B9: mAb<TnT>rM-11-7 Fab A102W (Fab, V domains shown)
VH: B1 VH
VL: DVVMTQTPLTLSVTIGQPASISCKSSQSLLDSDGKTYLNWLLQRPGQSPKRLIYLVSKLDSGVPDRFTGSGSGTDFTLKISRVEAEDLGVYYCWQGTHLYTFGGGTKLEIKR
notes: as for B2
B10: mAb<TnT>rM-11-7 Fab A102I (Fab, V domains shown)
VH: B1 VH with W101I
VL: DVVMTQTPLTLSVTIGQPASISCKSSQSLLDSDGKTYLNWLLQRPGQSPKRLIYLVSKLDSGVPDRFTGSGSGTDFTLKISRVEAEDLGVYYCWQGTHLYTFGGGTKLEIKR
notes: as for B2
B11: mAb<TnT>rM-11-7 Fab A102N (Fab, V domains shown)
VH: B1 VH with W101N
VL: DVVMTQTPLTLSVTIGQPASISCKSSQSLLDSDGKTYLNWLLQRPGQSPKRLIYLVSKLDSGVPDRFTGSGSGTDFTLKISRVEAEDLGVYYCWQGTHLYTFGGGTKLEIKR
notes: as for B2

Target: T1, human cardiac troponin T (human, UniProt P45379 2-298)
T1 construct: Analyte in SPR was 'Recombinant human TnT (Roche, 37 kDa)'; also called cTnT; TnT
Assay: Elecsys ECL sandwich immunoassay, calibrator Cal2 (recTnT), reference: biotinylated wild type Fab of MAB11-7
Protocol: (§1) The antibody Fab fragment mAb<TnT>rM-11-7(A102W)-Fab(IgG1)-Qtag was produced as a biotinylated Fab fragment, i.e., mAb<TnT>rM-11-7(A102W)-Fab(IgG1)-Qtag-Bi according to Example 7 and was tested in a sandwich immuno assay (see FIG. 6). The Fab fragment mAb<TnT>rM-11-7(A102W)-Fab(IgG1)-Qtag-Bi was compared to the biotinylated wild type Fab-fragment of MAB11-7 (i.e. comprising a CDR3 of SEQ ID NO: 16) as comprised in the commercially available Roche Elecsys® assay, catalogue number 05092744190 (Roche Diagnostics GmbH, Mannheim, Germany). These biotinylated reagents were used as reagent 1 (RI) in the corresponding assay protocol. The ruthenylated detection antibody was the one comprised in the Roche Elecsys® assay, catalogue number 05092744190 (Roche Diagnostics GmbH, Mannheim, Germany). The ruthenylated detection antibody corresponds to the Elecsys® R2 reagent.
(§2) The assay follows assay protocol 2 of the cobas e analyzers, where sample, R1 and R2 are mixed in a first step for 9 min incubation, then the streptavidin coated magnetic beads are added in a second step for another 9 min incubation. […]
(§3) Elecsys® streptavidin-coated magnetic beads were always used in combination with one of the RI and R2 reagent bottles. Samples measured included sample diluent (Diluent Universal=buffer blank,) and the TnT Elecsys® assay commercial calibrators (Call ([…] recTnT) and Cal2 ([…] recTnT)).

Binder | fold increase of Cal-2 signal against parental [fold]
B1 | 1.8

Target: T1, human cardiac troponin T
Assay: Elecsys ECL sandwich immunoassay, calibrator Cal1 (recTnT), reference: biotinylated wild type Fab of MAB11-7
Protocol: as §1, §2, §3

Binder | fold increase of Cal-1 signal against parental [fold]
B1 | 1.7

Target: T1, human cardiac troponin T
Assay: Elecsys ECL sandwich immunoassay, biotinylated Fab as capture reagent R1, ruthenylated commercial detection antibody; reference: biotinylated wild type Fab of MAB11-7
Protocol: as §1
Measurements were performed on a Cobas E170 Module using the Troponin T hs assay protocol with a blank control (Diluent Universal, Id. 11732277122, Diluent Multi Assay, Id. 03609987170, Roche Diagnostics GmbH, Mannheim, Germany), Call and Cal2 from Troponin T hs CalSet (Id. 05092752190, Roche Diagnostics GmbH, Mannheim, Germany) using the Troponin T hs assay specifications. […]

Binder | fold increase in sensitivity (signal to noise) against parental [fold]
B1 | ~2

Target: T1, human cardiac troponin T
Assay: SPR (Biacore 8K), 37 C, Fab captured from E. coli lysate by anti-mouse F(ab')2, recombinant human TnT as analyte
Protocol: Detailed kinetic investigations were performed at 37° C. on a GE Healthcare 8k instrument. A Biacore CM-5 series S sensor was mounted into the instrument and was preconditioned according to the manufacturer's instructions. The system buffer was HBS-ET (10 mM HEPES (pH 7.4), 150 mM NaCl, 1 mM EDTA, 0.05% (w/v) Tween® 20). The sample buffer was the system buffer supplemented with 1 mg/ml CMD (Carboxymethyldextran, Fluka). In one embodiment an anti-murine Fab fragment capture system was established on the CM5 biosensor. The rabbit polyclonal pAb anti M-IgG, F(ab′)₂ fragment (Cat. No. 315-005-047, Jackson Immuno Research) was immobilized according to the manufacturer's instructions using NHS/EDC chemistry. At 5 μl/min, 30 μg/ml RAMF(ab′)₂ in 10 mM sodium acetate buffer (pH 5.0) were immobilized at 10.000 RU on each flow cell. The sensor was subsequently saturated with 1 M ethanolamine pH 8.5. […] Recombinant human TnT (Roche, 37 kDa) was diluted in sample buffer at 30 nM and a concentration series was produced with 0 nM, 30 nM, 10 nM, 3.3 nM, 1.1 nM, 0.37 nM TnT concentration. The analyte concentration series were injected at 80 μl/min for 3 min association phase and the dissociation phase was monitored for 5 min. At the end of the analyte association phase a report point, “binding late” (BL) in response units (RU) was monitored. After each cycle of kinetic rates determination, the capture system was regenerated by a 15 seconds injection of 10-fold concentrated HBS-EP buffer followed by two 1 min injections of 100 mM HCl at 20 μl/min.

Binder | Kd [nM] | koff [s⁻¹] | kon [M⁻¹ s⁻¹] | t½ [min] (complex half-life)
B2 | 15 | 0.029 | 1.9e+06 | 0.4
B3 | 13 | 0.009 | 710000 | 1
B4 | 5 | 0.0033 | 710000 | 3
B5 | 1 | 0.0012 | 900000 | 10
B6 | 9 | 0.0098 | 1.1e+06 | 1
B7 | 2500 | 0.042 | 16000 | 0.3
B8 | 8 | 0.0069 | 830000 | 2
B9 | < 0.01 | < 1e-05 | 1.1e+06 | > 1160
B10 | 18 | 0.032 | 1.7e+06 | 0.4
B11 | 17 | 0.056 | 3.3e+06 | 0.2
